The text below walks through data of EP4570823A1.

In the experiment the target is Aβ oligomers, P05067. The experiment in a line: SPR (Biacore), 3F fixed on CM5 chip, Aβ oligomers in flow. The settings on record: remark: other sources report otherwise. On the technique in general: Surface plasmon resonance follows binding to a sensor surface in real time, without labels.
Chain of Aβ oligomers, P05067 (P05067 672-713): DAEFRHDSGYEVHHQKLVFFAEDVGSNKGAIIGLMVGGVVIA

B1: antibody 3F (scFv)
scFv: MAEVQLLESGGGLVQPGGSLRLSCAASGFTFSSYAMSWVRQAPGKGLEWVSGISNLGLTTGYADSVKGRFTISRDNSKNTLYLQMNSLRAEDTAVYYCAKTTSRFDYWGQGTLVTVSSGGGGSGGGGSGGGGSTDIQMTQSPSSLSASVGDRVTITCRASQSISSYLNWYQQKPGKAPKLLIYKASYLQSGVPSRFSGSGSGTDFTLTISSLQPEDFATYYCQNSAVRPVTFGQGTKVEIKR
Broadly, the Kd is a measure of binding affinity in units of concentration. Lower therefore signals tighter binding. B1 yielded a Kd of 0.847 nM. This counts as sub-nanomolar.
